# Test results published in article PMC7668070 (Proceedings of the National Academy of Sciences of the …, 2020).
# B1: K31F/N33D/H34A/E35Q/N49D/N51S/N53S/E57G/N64D ACE2(614), Aga2p-GFP construct Y354, displayed on yeast (designed binder)
# chain: QSTIEEQAKTFLDFFDAQAEDLFYQSSLASWDYSTSITEGNVQNMNDAGDKWSAFLKEQSTLAQMYPLQEIQNLTVKLQLQALQQNGSSVLSEDKSKRLNTILNTMSTIYSTGKVCNPDNPQECLLLEPGLNEIMANSLDYNERLWAWESWRSEVGKQLRPLYEEYVVLKNEMARANHYEDYGDYWRGDYEVNGVDGYDYSRGQLIEDVEHTFEEIKPLYEHLHAYVRAKLMNAYPSYISPIGCLPAHLLGDMWGRFWTNLYSLTVPFGQKPNIDVTDAMVDQAWDAQRIFKEAEKFFVSVGLPNMTQGFWENSMLTDPGNVQKAVCHPTAWDLGKGDFRILMCTKVTMDDFLTAHHEMGHIQYDMAYAAQPFLLRNGANEGFHEAVGEIMSLSAATPKHLKSIGLLSPDFQEDNETEINFLLKQALTIVGTLPFTYMLEKWRWMVFKGEIPKDQWMKKWWEMKREIVGVVEPVPHDETYCDPASLFHVSNDYSFIRYYTRTLYQFQFQEALCQAAKHEGPLHKCDISNSTEAGQKLFNMLRLGKSEPWTLALENVVGAKNMNVRPLLNYFEPLFTWLKDQNKNSFVGWSTDWSPYA
# B2: K31F/H34I/E35Q ACE2(614), Aga2p-GFP construct Y293, displayed on yeast (designed binder)
# chain: QSTIEEQAKTFLDFFNIQAEDLFYQSSLASWNYNTNITEENVQNMNNAGDKWSAFLKEQSTLAQMYPLQEIQNLTVKLQLQALQQNGSSVLSEDKSKRLNTILNTMSTIYSTGKVCNPDNPQECLLLEPGLNEIMANSLDYNERLWAWESWRSEVGKQLRPLYEEYVVLKNEMARANHYEDYGDYWRGDYEVNGVDGYDYSRGQLIEDVEHTFEEIKPLYEHLHAYVRAKLMNAYPSYISPIGCLPAHLLGDMWGRFWTNLYSLTVPFGQKPNIDVTDAMVDQAWDAQRIFKEAEKFFVSVGLPNMTQGFWENSMLTDPGNVQKAVCHPTAWDLGKGDFRILMCTKVTMDDFLTAHHEMGHIQYDMAYAAQPFLLRNGANEGFHEAVGEIMSLSAATPKHLKSIGLLSPDFQEDNETEINFLLKQALTIVGTLPFTYMLEKWRWMVFKGEIPKDQWMKKWWEMKREIVGVVEPVPHDETYCDPASLFHVSNDYSFIRYYTRTLYQFQFQEALCQAAKHEGPLHKCDISNSTEAGQKLFNMLRLGKSEPWTLALENVVGAKNMNVRPLLNYFEPLFTWLKDQNKNSFVGWSTDWSPYA
# B3: S19P/N33S/H34V/F40L/N49D/L100P ACE2(614), Aga2p-GFP construct Y375, displayed on yeast (designed binder)
# chain: QPTIEEQAKTFLDKFSVEAEDLLYQSSLASWDYNTNITEENVQNMNNAGDKWSAFLKEQSTLAQMYPLQEIQNLTVKLQLQAPQQNGSSVLSEDKSKRLNTILNTMSTIYSTGKVCNPDNPQECLLLEPGLNEIMANSLDYNERLWAWESWRSEVGKQLRPLYEEYVVLKNEMARANHYEDYGDYWRGDYEVNGVDGYDYSRGQLIEDVEHTFEEIKPLYEHLHAYVRAKLMNAYPSYISPIGCLPAHLLGDMWGRFWTNLYSLTVPFGQKPNIDVTDAMVDQAWDAQRIFKEAEKFFVSVGLPNMTQGFWENSMLTDPGNVQKAVCHPTAWDLGKGDFRILMCTKVTMDDFLTAHHEMGHIQYDMAYAAQPFLLRNGANEGFHEAVGEIMSLSAATPKHLKSIGLLSPDFQEDNETEINFLLKQALTIVGTLPFTYMLEKWRWMVFKGEIPKDQWMKKWWEMKREIVGVVEPVPHDETYCDPASLFHVSNDYSFIRYYTRTLYQFQFQEALCQAAKHEGPLHKCDISNSTEAGQKLFNMLRLGKSEPWTLALENVVGAKNMNVRPLLNYFEPLFTWLKDQNKNSFVGWSTDWSPYA
# B4: K31Y/W69V/L79T/L91P ACE2(614), Aga2p-GFP construct Y311, displayed on yeast (designed binder)
# chain: QSTIEEQAKTFLDYFNHEAEDLFYQSSLASWNYNTNITEENVQNMNNAGDKVSAFLKEQSTTAQMYPLQEIQNPTVKLQLQALQQNGSSVLSEDKSKRLNTILNTMSTIYSTGKVCNPDNPQECLLLEPGLNEIMANSLDYNERLWAWESWRSEVGKQLRPLYEEYVVLKNEMARANHYEDYGDYWRGDYEVNGVDGYDYSRGQLIEDVEHTFEEIKPLYEHLHAYVRAKLMNAYPSYISPIGCLPAHLLGDMWGRFWTNLYSLTVPFGQKPNIDVTDAMVDQAWDAQRIFKEAEKFFVSVGLPNMTQGFWENSMLTDPGNVQKAVCHPTAWDLGKGDFRILMCTKVTMDDFLTAHHEMGHIQYDMAYAAQPFLLRNGANEGFHEAVGEIMSLSAATPKHLKSIGLLSPDFQEDNETEINFLLKQALTIVGTLPFTYMLEKWRWMVFKGEIPKDQWMKKWWEMKREIVGVVEPVPHDETYCDPASLFHVSNDYSFIRYYTRTLYQFQFQEALCQAAKHEGPLHKCDISNSTEAGQKLFNMLRLGKSEPWTLALENVVGAKNMNVRPLLNYFEPLFTWLKDQNKNSFVGWSTDWSPYA
# B5: S19P/Q42L/L79T/N90Q ACE2(614), Aga2p-GFP construct Y355, displayed on yeast (designed binder)
# chain: QPTIEEQAKTFLDKFNHEAEDLFYLSSLASWNYNTNITEENVQNMNNAGDKWSAFLKEQSTTAQMYPLQEIQQLTVKLQLQALQQNGSSVLSEDKSKRLNTILNTMSTIYSTGKVCNPDNPQECLLLEPGLNEIMANSLDYNERLWAWESWRSEVGKQLRPLYEEYVVLKNEMARANHYEDYGDYWRGDYEVNGVDGYDYSRGQLIEDVEHTFEEIKPLYEHLHAYVRAKLMNAYPSYISPIGCLPAHLLGDMWGRFWTNLYSLTVPFGQKPNIDVTDAMVDQAWDAQRIFKEAEKFFVSVGLPNMTQGFWENSMLTDPGNVQKAVCHPTAWDLGKGDFRILMCTKVTMDDFLTAHHEMGHIQYDMAYAAQPFLLRNGANEGFHEAVGEIMSLSAATPKHLKSIGLLSPDFQEDNETEINFLLKQALTIVGTLPFTYMLEKWRWMVFKGEIPKDQWMKKWWEMKREIVGVVEPVPHDETYCDPASLFHVSNDYSFIRYYTRTLYQFQFQEALCQAAKHEGPLHKCDISNSTEAGQKLFNMLRLGKSEPWTLALENVVGAKNMNVRPLLNYFEPLFTWLKDQNKNSFVGWSTDWSPYA
# Target: SARS-CoV-2 spike RBD monomer (328-533), 8XHis tag, AviTag, biotinylated (SARS-CoV-2)
# Test: flow cytometry on cells
# Details: one partner purified
row,Binder,Kd
1,B1,0.45 nM
2,B2,1.71 nM
3,B3,0.61 nM
4,B4,0.64 nM
5,B5,0.94 nM
